Source: US20180185450A1 (Sanofi, published 2018)
Numbered stars: 1 amine (or outer) side, 2 acyl side, 3 side chain; on linkers, the order of the positions; unused ones are H or OH. Square brackets hold non-standard residues; d marks the D form. Side chains are listed from the residue outwards. Ends that are not written are not given here. γGlu = O=C(O)[C@H](CCC(=O)[*:2])N[*:1]; X70 = not defined here; x53 = not defined here; x70 = not defined here; Aib = CC(C)(N)C(=O)O

Molecular target: human GLP-1 receptor (human, UniProt P43220 24-463)
Experiment: cell-based or functional assay

Row | Binder | EC50 hGLP-1R (cAMP) [pM]
1 | HXQGTFTSDLSKQKESRAAXLFIEWLKNGGPSSGAPPPS (dSer at 2; K(x53) at 14; Aib at 20; C-terminal NH2) [SEQ ID NO: 122] | 24.9
2 | HXQGTFTSDLSKQKDSQAAQDFIEWLKRGGPSSGAPPPS (dSer at 2; K(γE-x53) at 14; C-terminal NH2) [SEQ ID NO: 123] | 2.6
3 | HXQGTFTSDLSKQKDSQAAQDFIEWLKRAGPSSGAPPPS (dSer at 2; K(γE-x53) at 14; C-terminal NH2) [SEQ ID NO: 124] | 3
4 | HXQGTFTSDLSKQKESRRAQDFIEWLKRXGPSSGAPPPS (dSer at 2; K(γE-x53) at 14; dAla at 29; C-terminal NH2) [SEQ ID NO: 126] | 6.6
5 | HXQGTFTSDLSKQKESRRAQDFIEWLKRGGPSSGAPPPS (dSer at 2; K(γE-x53) at 14; C-terminal NH2) [SEQ ID NO: 127] | 14.7
6 | HXQGTFTSDLSKQKESXAAQDFIEWLKAGGPSSGAPPPS (dSer at 2; K(γE-x53) at 14; Aib at 17; C-terminal NH2) [SEQ ID NO: 14] | 4.6
7 | HXQGTFTSDLSKQKDSRRAQDFIEWLKSGGPSSGAPPPS (dSer at 2; K(γE-x53) at 14; C-terminal NH2) [SEQ ID NO: 128] | 6.2
8 | HXQGTFTSDLSKQKESRRAQDFIEWLKSGGPSSGAPPPS (dSer at 2; K(γE-x53) at 14; C-terminal NH2) [SEQ ID NO: 129] | 14.8
9 | HXQGTFTSDLSKQKESXAAQLFIEWLKAGGPSSGAPPPS (dSer at 2; K(GABA-x70) at 14; Aib at 17; C-terminal NH2) [SEQ ID NO: 131] | 9.1
10 | HXHGTFTSDLSKQKDSKAAQLFIEWLKAXGPSSGAPPPS (dSer at 2; K(γE-X70) at 14; dAla at 29; C-terminal NH2) [SEQ ID NO: 138] | 5.5
11 | HXQGTFTSDLSKQKDSKAAQDFIEWLKAGGPSSGAPPPS (dSer at 2; K(γE-γE-x53) at 14; C-terminal NH2) [SEQ ID NO: 140] | 1.3
12 | HXQGTFTSDLSKQKDSKAAQDFIEWLKAGGPSSGAPPPS (dSer at 2; K(γE-X95) at 14; C-terminal NH2) [SEQ ID NO: 142] | 4.1
13 | HXQGTFTSDLSKQKESLAAQDFIEWLKAGGPSSGAPPPS (dSer at 2; K(γE-x53) at 14; C-terminal NH2) [SEQ ID NO: 150] | 6
14 | H[Aib]QGTFTSDLSKQK([γGlu-X70])DEQRAKEFIEWLKAGGPSSGAPPPS-NH2 (reading uncertain) [SEQ ID NO: 152] | 3.2
15 | H[Aib]QGTFTSDLSKQK([γGlu-x53])DSQAAQDFIEWLKAGGPSSGAPPPS-NH2 (reading uncertain) [SEQ ID NO: 155] | 2.5
16 | H[Aib]QGTFTSDLSKQK([γGlu-X70])DSQAAQDFIEWLKAGGPSSGAPPPS-NH2 (reading uncertain) [SEQ ID NO: 156] | 2.9
17 | HXQGTFTSDLSKQKESXAAQLFIEWLKAGGPSSGAPPPS (dSer at 2; K(γE-x53) at 14; Aib at 17; C-terminal NH2) [SEQ ID NO: 15] | 6.6
18 | HXQGTFTSDLSKQKDSRRAQDFIEWLKAXGPSSGAPPPS (dSer at 2; K(γE-X70) at 14; dAla at 29; C-terminal NH2) [SEQ ID NO: 161] | 5
19 | H[Aib]QGTFTSDLSKQK([γGlu-X70])DSRRAQDFIEWLKAGGPSSGAPPPS-NH2 (reading uncertain) [SEQ ID NO: 162] | 3.1
20 | HXQGTFTSDLSKQKDSKAAQDFIEWLKSGGPSSGAPPPS (dSer at 2; K(γE-x53) at 14; C-terminal NH2) [SEQ ID NO: 173] | 5.7
21 | H[Aib]QGTFTSDLSKQK([γGlu-X70])DEQRAKEFIEWLKSGGPSSGAPPPS-NH2 (reading uncertain) [SEQ ID NO: 174] | 2.6
22 | H[Aib]QGTFTSDLSKQK([γGlu-X70])DEQRAKDFIEWLKSGGPSSGAPPPS-NH2 (reading uncertain) [SEQ ID NO: 175] | 2.5
23 | HXQGTFTSDLSKQKDSKRAXDFIEWLKAGGPSSGAPPPS (dSer at 2; K(γE-x70) at 14; Aib at 20; C-terminal NH2) [SEQ ID NO: 196] | 7.8
24 | H[Aib]QGTFTSDLSKQK([γGlu-x70])DSRRAQLFIEWLKAGGPSSGAPPPS-NH2 (reading uncertain) [SEQ ID NO: 198] | 8.2

Molecular target: human glucagon receptor (human, UniProt P47871 26-477)
Experiment: cell-based or functional assay

human glucagon receptor, sequence (P47871 26-477): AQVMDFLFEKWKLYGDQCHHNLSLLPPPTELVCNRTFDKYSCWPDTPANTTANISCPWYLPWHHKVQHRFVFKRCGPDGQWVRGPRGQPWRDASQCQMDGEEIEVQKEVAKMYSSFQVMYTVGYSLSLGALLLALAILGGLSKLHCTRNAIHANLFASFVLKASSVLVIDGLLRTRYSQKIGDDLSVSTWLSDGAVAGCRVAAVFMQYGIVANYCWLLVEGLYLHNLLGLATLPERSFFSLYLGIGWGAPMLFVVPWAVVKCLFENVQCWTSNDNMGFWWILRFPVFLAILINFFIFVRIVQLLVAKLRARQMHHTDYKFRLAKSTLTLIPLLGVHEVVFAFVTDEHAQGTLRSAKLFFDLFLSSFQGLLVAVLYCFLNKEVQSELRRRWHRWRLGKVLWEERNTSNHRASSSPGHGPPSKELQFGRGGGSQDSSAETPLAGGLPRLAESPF

Row | Binder | EC50 hGlucagon-R (cAMP) [pM]
25 | HXQGTFTSDLSKQKESRAAXLFIEWLKNGGPSSGAPPPS (dSer at 2; K(x53) at 14; Aib at 20; C-terminal NH2) [SEQ ID NO: 122] | 156
26 | HXQGTFTSDLSKQKDSQAAQDFIEWLKRGGPSSGAPPPS (dSer at 2; K(γE-x53) at 14; C-terminal NH2) [SEQ ID NO: 123] | 9.7
27 | HXQGTFTSDLSKQKDSQAAQDFIEWLKRAGPSSGAPPPS (dSer at 2; K(γE-x53) at 14; C-terminal NH2) [SEQ ID NO: 124] | 8.4
28 | HXQGTFTSDLSKQKESRRAQDFIEWLKRXGPSSGAPPPS (dSer at 2; K(γE-x53) at 14; dAla at 29; C-terminal NH2) [SEQ ID NO: 126] | 6.8
29 | HXQGTFTSDLSKQKESRRAQDFIEWLKRGGPSSGAPPPS (dSer at 2; K(γE-x53) at 14; C-terminal NH2) [SEQ ID NO: 127] | 9.4
30 | HXQGTFTSDLSKQKESXAAQDFIEWLKAGGPSSGAPPPS (dSer at 2; K(γE-x53) at 14; Aib at 17; C-terminal NH2) [SEQ ID NO: 14] | 94.7
31 | HXQGTFTSDLSKQKDSRRAQDFIEWLKSGGPSSGAPPPS (dSer at 2; K(γE-x53) at 14; C-terminal NH2) [SEQ ID NO: 128] | 1.6
32 | HXQGTFTSDLSKQKESRRAQDFIEWLKSGGPSSGAPPPS (dSer at 2; K(γE-x53) at 14; C-terminal NH2) [SEQ ID NO: 129] | 4.1
33 | HXQGTFTSDLSKQKESXAAQLFIEWLKAGGPSSGAPPPS (dSer at 2; K(GABA-x70) at 14; Aib at 17; C-terminal NH2) [SEQ ID NO: 131] | 24.9
34 | HXHGTFTSDLSKQKDSKAAQLFIEWLKAXGPSSGAPPPS (dSer at 2; K(γE-X70) at 14; dAla at 29; C-terminal NH2) [SEQ ID NO: 138] | 9.2
35 | HXQGTFTSDLSKQKDSKAAQDFIEWLKAGGPSSGAPPPS (dSer at 2; K(γE-γE-x53) at 14; C-terminal NH2) [SEQ ID NO: 140] | 1.5
36 | HXQGTFTSDLSKQKDSKAAQDFIEWLKAGGPSSGAPPPS (dSer at 2; K(γE-X95) at 14; C-terminal NH2) [SEQ ID NO: 142] | 2.1
37 | HXQGTFTSDLSKQKESLAAQDFIEWLKAGGPSSGAPPPS (dSer at 2; K(γE-x53) at 14; C-terminal NH2) [SEQ ID NO: 150] | 35.5
38 | H[Aib]QGTFTSDLSKQK([γGlu-X70])DEQRAKEFIEWLKAGGPSSGAPPPS-NH2 (reading uncertain) [SEQ ID NO: 152] | 2.3
39 | H[Aib]QGTFTSDLSKQK([γGlu-x53])DSQAAQDFIEWLKAGGPSSGAPPPS-NH2 (reading uncertain) [SEQ ID NO: 155] | 25.1
40 | H[Aib]QGTFTSDLSKQK([γGlu-X70])DSQAAQDFIEWLKAGGPSSGAPPPS-NH2 (reading uncertain) [SEQ ID NO: 156] | 12.5
41 | HXQGTFTSDLSKQKESXAAQLFIEWLKAGGPSSGAPPPS (dSer at 2; K(γE-x53) at 14; Aib at 17; C-terminal NH2) [SEQ ID NO: 15] | 176
42 | HXQGTFTSDLSKQKDSRRAQDFIEWLKAXGPSSGAPPPS (dSer at 2; K(γE-X70) at 14; dAla at 29; C-terminal NH2) [SEQ ID NO: 161] | 2.4
43 | H[Aib]QGTFTSDLSKQK([γGlu-X70])DSRRAQDFIEWLKAGGPSSGAPPPS-NH2 (reading uncertain) [SEQ ID NO: 162] | 2.4
44 | HXQGTFTSDLSKQKDSKAAQDFIEWLKSGGPSSGAPPPS (dSer at 2; K(γE-x53) at 14; C-terminal NH2) [SEQ ID NO: 173] | 5.9
45 | H[Aib]QGTFTSDLSKQK([γGlu-X70])DEQRAKEFIEWLKSGGPSSGAPPPS-NH2 (reading uncertain) [SEQ ID NO: 174] | 1.9
46 | H[Aib]QGTFTSDLSKQK([γGlu-X70])DEQRAKDFIEWLKSGGPSSGAPPPS-NH2 (reading uncertain) [SEQ ID NO: 175] | 3.1
47 | HXQGTFTSDLSKQKDSKRAXDFIEWLKAGGPSSGAPPPS (dSer at 2; K(γE-x70) at 14; Aib at 20; C-terminal NH2) [SEQ ID NO: 196] | 1.8
48 | H[Aib]QGTFTSDLSKQK([γGlu-x70])DSRRAQLFIEWLKAGGPSSGAPPPS-NH2 (reading uncertain) [SEQ ID NO: 198] | 2.4
